Test results reported in PMC4729479.

Molecular target: hemagglutinin-esterase-fusion glycoprotein (HEF) of influenza D virus D/swine/Oklahoma/1334/2011, ectodomain (influenza D virus (D/swine/Oklahoma/1334/2011))
Assay: crystal structure

Substance: hemagglutinin-esterase-fusion glycoprotein (HEF) of influenza D virus D/swine/Oklahoma/1334/2011, ectodomain (domain or fragment)
- stoichiometry N: 3
